Assay results: the domain aggregation screens of Martell et al. (2025)

Assay: soluble fraction after stress (log2 fold change); higher = more stays soluble; pooled small domains, quantitative proteomics
Details: stress: 75 degC
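Also: 20 min heating vs room temperature control held 20 min.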

Sequence | soluble fraction (log2)
HMFAQDQLFKKDNSKVDVKILEINTTEIKYKLFTYQDGPTITVAKKDVALIIYQNGVHEVIT | -2.53
HMFAVPAPEVDDILSEKKVDVLLLGPQVRYLLEQFTEKLKDKNIPIGVIPMVDYGMMNGSKVLALAEELIG | 0.131
HMFDFGNHLRMLREKHGISQEELGRRVGRAGSVISNYENNIKIPTLDVLTTMARIYDVSLDYLVG | -1.59
HMFDFNNLSSLSDVELSVYRFVVNNPEKVAYMRVRDIAQKTHVANSSVMRFVHKIGFASFPEFKAYLKNIN | -0.997
HMFDITKEVLKQSGLYNLYKNDESLEGINRIQNIEELLNGIKDFVENNEKSQASVSSFLQDVALATDQ | 0.258
HMFDKVSVNNLAEAIGRLDGIYQDVLRLYYVHELPSKEIGKILNINHLTVNTRLKRAREKLFKMLKEE | -3.11
HMFDNPLSERDKEILNHISMGKSNKEIANQVGLAEQTIKNTISVILDKTFTSNRAQAASMATKNKW | 0.666
HMFDPTDLPEKQLMVYEIIKSNNGINMTNIASLLGFNKTTVDNAIRALKKKEIVVFKGTNRSGGYFNT | -1.91
HMFEDEYLETMYAFYETDPQALVRTGDLASSLKVSPASATEMVQRLASKGFVDYIPYKGASLTELGLAM | 0.0785
HMFEDYLRMKGLSIVSFSKQTGIPISTLRNLNKIRYDKWKIRYLEELSNVLNKTIQEIIEELKNMG | -3.5
HMFEFFKGIYSISLLKKDGIFFVTFKDENKEAVKHIFPEKPTALELGIKVMEMFEYKERYDGII | -0.455
HMFEPLTDREREVLQALADGLSDKEIAERLYISPATVRTHITAILGKLDANSRLQAVVVAARHNLVTL | -0.478
HMFERISELLTDEELAVYKRGRNANASSVPKHADIADYRRATGVEALFGYLYIKGEIDRINQLFELA | -0.154
HMFESQYIGKIATAITDISAFSGRLKIYDENWEARTLGEDAPEIKKGAKVKIVRHDDLTMFVEKK | -0.397
HMFETLVLALAQAWPAERGPVEALQFEGGRLSLQRSGFADEQVEALRQRLSSEGWTLQTEQGRLILNKAG | -1.17
HMFFDSDTDIQNALNAENSIKKYQLFRTQTLYNSAQSDIDFVNQPEVKAKLFDALENLKNKLGFLAEPT | -0.0329
HMFGIEIPEEAGKLQDYTLTDDDLEGGNTLKEIQFPQGARVVIIRRDDKFIIPDGSVELQSGDQLLIIYGE | -1.59
HMFGSKDVKRAIEDYAAAMSSQPRALSAPQRKVLIRHLATSGLLQLRGAAKIVADELGISRASVYNALKV | -1.53
HMFHDPTMEETLINLKGITNEVLSLLSSSKIKKLEDLAEMSVPELRDIVENISDEEASALIMEARKPWF | -0.22
HMFHGEGVQANNIQAYIVLKMAAVNGAEDALDTADEVSEKMSREDLETATQVLGQIFRKYLMELQSA | -1.22
HMFIKVEVPDLTGMTLTEVRKALEEKNLKMGDIRPAGQTSLVAKVINQSPQAKMVVDEYSEVSIQFEE | -0.985
HMFIMQTVALGSEGPDVRALQSILNRIGYNAGTVDGIFGSRTRQAVIAFQRNNGLAADGVAGPATWG | 0.188
HMFINITAITGNNYNTPDAARNALPNTYNKKIGLVFTYRDLTNRYRVYLYNSETSNYIPLDSYM | -3.5
HMFIPGDSVRVHVKVVEGSNERIQMFEGVVIARQGSGVRENFTVRRISYGVGIERTFPVHSPRL | -0.226
HMFISVDGLIHMGRTHLVILGGVEFARGDMIPETGEVVKSIGADSVVLELPDTGMRRTLNFV | -2.97
HMFKINNIIVSGLSEKSNLQTSEEIKNILFENIFFIKKDVLFKILEKNNLINSFEIKKIYPDTIEVKIKKT | 0.0453

Sequence | soluble fraction (log2)
HMFKITNTLNKTAEVYLTIPENKKGKGKIMISVNGAFHELEAMTENDKIQSGAVVKVVRIENDNILIVET | -2.18
HMFKMRVNGKEVIGMAITAKPQANPIDVADEIKKFVIDANTKLPSTMKLEVLYDATGIFRASISEVIS | -1.08
HMFLDKDTLNQLYRFGIALTGNEQDSQDVLHTAIERFLRNKPQQINQQAAYIRTIMRNYWYDELRKLKTQ | -3.06
HMFLPETEVKSFFHRGITKISPSLAMDIADFFRMPFAVILKRALALEVISDEQYRSFMTVKPEHV | 0.137
HMFLSQQDINRANAASVTDMGDIIRRTFERNAAEINGLELSDAEKKDAVKQMATLATTALKTAAGAVNPY | -0.0457
HMFLSSEERRERIIEVLRQQDEVTVVELSHRLGVSEVTTRKDLQQLEEQGYLTRVRGGAVVSGRGQL | -0.0348
HMFMNFAEHLMALRKQRGWSQEELGSQIGVTRQTVSKWEMGQSTPELEKLVELSRLFGMSIDQLVGL | -0.118
HMFNISEKLKKYRNALGLTQTEVAEKIEITKPTYASYEKGKDISIGTLKKLADLFEVSFESFFSE | -0.283
HMFNLFPHLSVLRNITLAPQKVKGLNRSESNEIAMSLLERVGIPEQSDKFPSQLSGGQQQRVAIARALAM | -0.502
HMFPELSEEEQIIVSLLQKQPDGLQINTLVVESNIPVNRMSGILFELEMKGIIRMAAGGVYRLL | -1.35
HMFQEGLVAPPAYTRPESFRGWEVPEILRSGNFPAIAKWQHEESLRLTRERRPAMLEAYERRT | -0.107
HMFQNYTDAVVVASKTFFYNMPDESTRKSAYLIQGDRIMVEKSQRNFVYVTFTNEASGRTTTGWLKSDDLE | -2.65
HMFSDDEINRLKARDSILVNLRDSEKQVWELYTDGKTVQNIANQLNKHKQSISATIINIKNKISRKQNMLK | -0.709
HMFSGVQLGQAISEAIKRKNVSQKEVADHFGVKQPSVSGWIKNGRIDKKHLDKLIDYFSDVVTPSHFGIE | 0.27
HMFSQDQIFLRSGEKIDARVIEVTPEFIKYKSKANPEGPLYSKKITDVLLITYANGTTEVYE | -0.764
HMFTDAEIKQFAAAAVEVTKIQQDSTISAADKQPKMLAVVQSSGLPPEKFNQIGQAAAADPALQQRIQA | 0.038
HMFTEPQKLVKRILNMLGHRYDDASIQARSDFQASNNYHKVQVKKKRESMEEYTAWLEEMYDAYRIN | -1.49
HMFTFEDMDKFESLLTTGLTDVQRRIYSLVTHDGKEYDLIAETLGISVEAVRMHMSRARKKIRENYKKID | -3.38
HMFTIGENIRDLRLERAITQEQLAEQLNVSAPAVSKWERGEAYPDITLVPKLAEILGVSTDKLFGVD | 0.0273
HMFTKYSPDFKLSVILDMRKNNLGYGEVVRKYWNLDSYKESDRHRSQVRLWERIFLEEGVEGFM | -4.63
HMFTLDDLQATYDIFERAEQNSDAMLAFQKVITAEGLDFDLTSPQGIVDFFKGAAPTEIYDLYEAS | -0.547
HMFTNSTSSRQLTNSDDTLRLNISSQTRQMLPNGQPFGGSLSGKLLLVIYGATTRSIPAQTTPEKIVV | -0.198
HMFTSVDVAPDLRTAKVFYSVLGRKKSDKEINIAINQKRKAFKKFMGPELHLKNIPDLHFYYD | -0.369
HMFTYDLSERELTIIELVAKGLNNKELADTLFLSEGTIRNYLSTLLNKLDLRDRTQLAIFYYQHL | -2.16
HMFVEEGSLKKITFDTYEFNITDNLKSLRVTYQGLLPNLFREGQGVVIEGILLEQNYIQANTVF | 0.249
HMFVTGTTIKKLREEKRMTQGELAQMIGVSDKAVSKWETGRGLPDISLLEPLSRALGISVAELFAGQH | -0.612

Sequence | soluble fraction (log2)
HMFWEGYLAARREQFLKDQQVLLGNEFRSNPDFWLEVASKEWAVVEERLSTGADVSEEVQETMGLDF | -2.13
HMFYNSSDNAYKILEINKSATVDEIKAAYRKMAKKYHPDKVIHLGQEHQKGAEEKFRQVQEAYEELQKERG | 0.19
HMGAAVEVISLRYRSAAELLPIVRSLLSTEGKISADERTNSLIIVDSDEAVARVIHSLATLDT | -1.3
HMGADGIPGKNGENGETSYVHFAYATSADGKTGFSTTDTVGKTYMGQYADFEKADSEDPTKYRWGKFQGP | 0.0581
HMGAFAIHTASELSAGMRIRHERFGPGVITGIDTANPASGARIQVDFDNGTSKTLLLSYAKFQI | -2.53
HMGAGKVVDGVTYDFVFDVDVADGQPPLRLPYNRGEDVYQAAERFILRNELPATYREQIVNFIVQNTPG | -0.116
HMGAISGEQREFYTVFRGHLNSHVGEFKVEDIENLLMKAKTEVPDLLEEEFLKMGEAILNRYRN | 0.0818
HMGAKEHLAGETLRMAVELLSEKQGIPAEQALIRFISSPVYDALYDLDTGMWTQGPTRLLEAFEALE | -2.01
HMGALARLLASVEQELGVTRDRMTRTQKQEAVTLLNEWGAFTLRKSVEDVAEALGVSRFTVYNYLERAEA | -2.99
HMGALSLDMLFDRFDALQEQSMGDKTEGGQELRGMIRTFIEQEKLDIRVTRTTTNAALLEMIEKEMQG | -0.717
HMGASALTEREREVLRLLEGGGSDKRIARQLAISEHGVRYHLKSIYKKLGVHDRVSAIAAGRRLAS | -1.37
HMGASTQLVEIKNAYENGEWQNVIDLAGKLHEKYNGSEEDKEAQEMAKNSQSKLDEAAAAKAAEEA | 0.0816
HMGASYSQFLDQVDSGNVQKVAFGGDMRGGTSQLTYTTRGGQSSTITAPFDRDLINVLRTKNVEIVQEEP | 0.236
HMGATFITSSKDNAINIRQAAGTDSKVIETIKNGHILESSEKSGEWYKVTYYDSDIKKTFTGYIHNSQLK | 0.376
HMGAVQFAEQKIHIGSRWIGKKISEFSAESDAFVILIKRGSEVVIPRGPTDIVENDVLVIHVPD | -3.05
HMGAVVSPMPGVILDIKVKEGDSVSEGQTVIILEAMKMENEIVSEFTGTVSAIRVKKGDTVDTDAVLVEI | -1.76
HMGAYPENSLLKERGQSAVYLIQENRKRLFFNAEAFLINGYNWKDIQVVDDLSKILTGKVIYAK | -2.83
HMGDAATVFRDHYNINSAAQAQAALDRKEALWEQPNPWRDSDNREVFDWAAQTVKDRFDSGKYKPK | 0.626
HMGDDVRKNILDVLSKFERVDITDLDSLELVRFYLEIEDIFDIEIKENDFYRLKSVDSIVDYIRNKSFF | -1.31
HMGDIQFMEYRINHSSGWIGKNISDFAAVSKNLVILIKRGQDVVIPRGPTAIMEDDVLVLHA | -1.88
HMGDITALMPGKVIQIIVKEGQEIKVGDPLIVIESMKMENTISSEVNGTIKSINIQIDDNVQFDQVLFTV | -2.54
HMGDITIPDLQGMSFDQAREKLKALGLSIGKISYTSDTSKDDGVVISQGLQAGGKASKGATVDITINET | 0.332
HMGDLEEAVKDFSEAIRLNDSWAEAYANRAVVYAEQGDAAQSDQDAEKARLLGVDQNRLNEMLNAVNS | 0.294
HMGDLKALMPGKVTQVLVSGGQKVKVGEPVLLMESMKMEQTIVATKDGDISEILVSEGDTVEVGKIMIKI | -0.00398
HMGDLTVPDLSGLTVDQAKQRLKDMGLVLGKITTQEDSSKPDGVIISQSPSADGKINKGQLVDVVVNKLS | 0.034
